B1: LINE1-mini (parent)
chain: GGCAGAGCUCAACACAGCGUGGCAAAGUGGCUGUGGCUAGACUGCC

Variants of: B1
Test: self-cleavage, relative activity (ratio to wild type); higher = more cleavage; in vitro, sequencing; the parent is a self-cleaving ribozyme

Row | Variant | self-cleavage
1 | GGCAGAGCUCAAGACAGCGUGGCAAAGUGGCUGUGGAUAGACUGCC | 0.13
2 | GGCAGAGCUCAACACAGUGUGGCAAAUUGGCUGUGGCUAGACUGCC | 1.63
3 | GGCAGAGGUCAACACAGCGUGGCAAAGUGGCUCUGGCUAGACUGCC | 0.04
4 | GGCAGAGAUCAACACAGCGUGGCAAAGUGGCUAUGGCUAGACUGCC | 0.16

Reference: the RNAGym collection of RNA variant scans (doi:10.7554/elife.90254)
